Values of other authors in article PMC12728182.
pKd: −log10 of the molar value.

Columns and labels:
PAK1 (Homo sapiens) = PAK1 (Homo sapiens) (UniProt Q13153)
ACK (Homo sapiens) = ACK (Homo sapiens) (UniProt Q07912)
WASP (Homo sapiens) = WASP (Homo sapiens) (UniProt P42768)
Chain of WASP (Homo sapiens) (P42768 2-502): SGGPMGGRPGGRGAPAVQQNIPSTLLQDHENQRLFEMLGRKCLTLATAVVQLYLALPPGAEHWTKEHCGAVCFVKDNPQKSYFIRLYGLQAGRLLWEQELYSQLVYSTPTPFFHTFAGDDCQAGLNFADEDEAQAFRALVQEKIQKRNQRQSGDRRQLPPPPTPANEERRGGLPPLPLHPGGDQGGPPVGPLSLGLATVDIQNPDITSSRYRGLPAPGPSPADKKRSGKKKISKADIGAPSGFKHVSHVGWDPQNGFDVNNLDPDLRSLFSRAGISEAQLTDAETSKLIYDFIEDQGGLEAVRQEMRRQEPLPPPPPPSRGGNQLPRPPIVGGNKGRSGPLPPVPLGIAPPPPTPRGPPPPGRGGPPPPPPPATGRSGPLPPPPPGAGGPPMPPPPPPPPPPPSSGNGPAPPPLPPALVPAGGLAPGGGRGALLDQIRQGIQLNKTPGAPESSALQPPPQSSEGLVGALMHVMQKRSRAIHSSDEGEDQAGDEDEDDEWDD

Chain of Cdc42 (P60953 1-188): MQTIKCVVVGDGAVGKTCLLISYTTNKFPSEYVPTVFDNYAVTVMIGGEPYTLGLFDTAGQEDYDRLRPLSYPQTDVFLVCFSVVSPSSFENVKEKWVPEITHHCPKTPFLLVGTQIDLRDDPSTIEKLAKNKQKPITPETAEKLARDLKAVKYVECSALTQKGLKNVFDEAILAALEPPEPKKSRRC
Chain of PAK1 (Homo sapiens) (Q13153 2-545): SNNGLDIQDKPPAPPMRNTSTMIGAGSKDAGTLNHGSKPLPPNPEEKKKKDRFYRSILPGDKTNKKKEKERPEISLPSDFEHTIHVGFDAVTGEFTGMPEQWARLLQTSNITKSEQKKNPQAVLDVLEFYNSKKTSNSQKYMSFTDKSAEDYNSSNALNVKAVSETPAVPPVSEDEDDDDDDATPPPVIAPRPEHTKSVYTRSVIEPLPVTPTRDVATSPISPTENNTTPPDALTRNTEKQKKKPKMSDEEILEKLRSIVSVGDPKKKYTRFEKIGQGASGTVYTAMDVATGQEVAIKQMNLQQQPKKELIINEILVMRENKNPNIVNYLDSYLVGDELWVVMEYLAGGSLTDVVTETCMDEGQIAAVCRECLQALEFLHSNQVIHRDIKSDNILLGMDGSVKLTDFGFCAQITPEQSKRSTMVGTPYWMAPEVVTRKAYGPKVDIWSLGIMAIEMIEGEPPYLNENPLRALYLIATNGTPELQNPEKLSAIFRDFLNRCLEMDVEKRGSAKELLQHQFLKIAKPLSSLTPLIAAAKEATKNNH
Chain of ACK (Homo sapiens) (Q07912 whole entry): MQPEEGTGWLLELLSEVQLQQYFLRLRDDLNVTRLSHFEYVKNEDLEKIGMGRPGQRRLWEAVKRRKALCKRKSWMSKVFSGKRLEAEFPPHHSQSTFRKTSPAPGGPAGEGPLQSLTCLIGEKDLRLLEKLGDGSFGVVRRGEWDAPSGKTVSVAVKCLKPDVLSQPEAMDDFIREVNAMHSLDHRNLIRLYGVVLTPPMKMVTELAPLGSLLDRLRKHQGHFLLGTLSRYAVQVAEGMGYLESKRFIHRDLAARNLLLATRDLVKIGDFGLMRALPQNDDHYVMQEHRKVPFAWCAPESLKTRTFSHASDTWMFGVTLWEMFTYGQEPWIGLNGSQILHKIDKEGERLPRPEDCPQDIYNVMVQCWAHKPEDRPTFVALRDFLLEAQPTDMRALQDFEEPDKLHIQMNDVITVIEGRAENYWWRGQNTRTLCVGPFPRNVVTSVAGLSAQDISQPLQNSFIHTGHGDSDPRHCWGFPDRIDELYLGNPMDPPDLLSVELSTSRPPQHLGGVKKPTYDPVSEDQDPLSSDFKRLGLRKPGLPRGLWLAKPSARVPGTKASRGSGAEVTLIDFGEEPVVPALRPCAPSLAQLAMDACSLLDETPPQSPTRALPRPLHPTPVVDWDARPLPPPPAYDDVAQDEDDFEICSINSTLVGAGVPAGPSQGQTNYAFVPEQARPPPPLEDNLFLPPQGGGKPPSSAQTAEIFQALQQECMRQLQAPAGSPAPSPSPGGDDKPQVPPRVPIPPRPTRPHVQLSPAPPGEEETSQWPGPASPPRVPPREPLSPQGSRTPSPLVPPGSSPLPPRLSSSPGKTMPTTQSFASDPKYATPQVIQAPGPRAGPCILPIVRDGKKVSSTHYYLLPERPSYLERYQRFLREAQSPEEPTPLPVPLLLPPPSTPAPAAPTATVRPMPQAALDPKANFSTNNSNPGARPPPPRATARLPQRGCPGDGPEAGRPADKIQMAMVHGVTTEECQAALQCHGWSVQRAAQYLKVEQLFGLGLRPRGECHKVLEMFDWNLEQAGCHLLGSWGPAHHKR

- pKd (PAK1 (Homo sapiens)): 6.21
- pKd (ACK (Homo sapiens)): 6.11
- pKd (WASP (Homo sapiens)): 7.26
Substance: Cdc42 (from UniProt P60953)
